Assay results as given in US7642239B2, “Inhibition of placenta growth factor (PLGF) mediated metastasis and/or angiogenesis” (Center for Molecular Medicine and Immunology, priority 2005, dated 2010).
Marks after values point to notes of the source that are not given here.

Key:
PlGF = molecular target: T1, PlGF (Homo sapiens, UniProt P49763); test: Free peptide binding ELISA (FLAG epitope probe), PlGF-coated wells; conditions: free peptide; BP3, BP4, BP3scr at up to 50 μM
T1 construct: purchased R&D Systems
T1 sequence (P49763 19-170 isoform P49763-3 limits assumed): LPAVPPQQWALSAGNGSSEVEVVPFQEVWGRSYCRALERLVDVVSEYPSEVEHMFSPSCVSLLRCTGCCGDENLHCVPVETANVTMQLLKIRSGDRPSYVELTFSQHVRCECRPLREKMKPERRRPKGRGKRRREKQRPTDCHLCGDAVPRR
Procedure: (§1) Competition assays were done with 2.5 or 25 U/ml heparin (Sigma, St. Louis, Mo.). BP1, 3, 4, and a scrambled version of BP3 (scrBP3) were synthesized with a linker followed by the FLAG epitope ([…] SEQ ID NO:5) at the C-terminus. Thirty minutes after addition of the first reagent, the second reagent was added, followed by another 30 minute incubation. Peptide binding was assessed by probing for the FLAG epitope (Prickett et al., Biotechniques 7:580-9, 1989; Castrucci et al., J. Virol. 66:4647-53, 1992). Absorbance was read at 490 nm.

[1] = molecular target: T2, recombinant human Flt-1 fusion protein (Homo sapiens, UniProt P17948); test: Free peptide binding and competition ELISA, Flt-1-coated wells; conditions: free peptide
T2 construct: purchased R & D Systems
T2 sequence (P17948 with tags, fused parts or gaps limits assumed): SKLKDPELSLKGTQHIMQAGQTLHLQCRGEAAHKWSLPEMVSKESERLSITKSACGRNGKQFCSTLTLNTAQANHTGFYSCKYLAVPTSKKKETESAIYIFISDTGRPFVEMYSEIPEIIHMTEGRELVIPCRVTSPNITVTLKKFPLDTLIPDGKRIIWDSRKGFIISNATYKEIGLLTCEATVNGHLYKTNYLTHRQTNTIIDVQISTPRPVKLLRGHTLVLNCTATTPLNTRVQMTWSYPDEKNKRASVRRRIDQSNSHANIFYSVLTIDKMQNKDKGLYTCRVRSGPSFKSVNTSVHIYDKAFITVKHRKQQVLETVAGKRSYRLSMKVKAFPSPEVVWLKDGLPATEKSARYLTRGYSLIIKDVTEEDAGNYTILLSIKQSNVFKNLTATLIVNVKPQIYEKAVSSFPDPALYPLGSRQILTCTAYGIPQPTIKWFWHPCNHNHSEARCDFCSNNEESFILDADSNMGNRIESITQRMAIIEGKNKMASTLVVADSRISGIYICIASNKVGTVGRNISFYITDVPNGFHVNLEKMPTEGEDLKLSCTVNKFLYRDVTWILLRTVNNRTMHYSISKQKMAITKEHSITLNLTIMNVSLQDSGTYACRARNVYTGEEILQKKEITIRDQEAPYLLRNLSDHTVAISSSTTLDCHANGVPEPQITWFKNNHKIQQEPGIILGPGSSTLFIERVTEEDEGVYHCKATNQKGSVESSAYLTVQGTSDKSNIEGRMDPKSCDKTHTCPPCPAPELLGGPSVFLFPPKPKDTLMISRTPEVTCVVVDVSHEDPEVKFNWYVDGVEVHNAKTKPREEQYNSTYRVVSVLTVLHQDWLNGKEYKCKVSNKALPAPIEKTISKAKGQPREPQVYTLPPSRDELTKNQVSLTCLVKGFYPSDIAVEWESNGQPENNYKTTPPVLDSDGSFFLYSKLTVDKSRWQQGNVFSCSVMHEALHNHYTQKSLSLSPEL
Procedure: as §1

[2] = system: MCF-7 human breast cancer cells; format: cell-based
Procedure: (§2) MTT (3-(4,5-dimethylthiazolyl-2)-2,5-diphenyltetrazolium bromide, Sigma) assays were performed under conditions of low serum (1%) to determine PlGF effects on cell viability, the toxicity of the peptides, and their effect on PlGF-mediated breast tumor cell growth (Mosmann, 1983, J Immunol Meth 65:55-63; Modrak et al., 2000, Biochem Biophys Res Commun 268:603-606). Peptide concentration was 1-2 μM, and the concentration of exogenous PlGF was 2 nM. The human breast tumor lines tested were: MDA-MB-231, MDA-MB-468 and MCF-7 (ATCC, Mannasses, Va.). Briefly, 96-well plates were seeded with 5-10×10^4 cells/ml in medium containing 1% fetal bovine serum (FBS). After 24 h, cells were treated with individual peptides at a concentration of 1-2 μM (4 binding peptides), in quadruplicate, and/or rhuPlGF at a 2-nM concentration. After the designated time points, 0.5 mg/ml MTT (5 mg/ml stock diluted 1:10 in RPMI medium with no serum) was added to the wells (Mosmann, 1983). When purple crystals were clearly visible in the cells, and the plate appeared to be fully developed, the reaction was terminated with acid alcohol (0.04M HCl in isopropanol). Absorbance of the dissolved crystals was read at 570 nm. The 24-h time point was chosen because the in vitro effects of PlGF on tumor cell migration were measurable at this time (see wound-healing assay below). These assays were also performed using medium with 10% FBS, with similar results.

MDA-MB-468 xenografts = format: in vivo, mice; conditions: 200 μg/dose i.p., twice-weekly; for tumor growth inhibition: after 4 weeks
Procedure: FIG. 5. Treatment of mice bearing MDA-MB-468 xenografts with peptides BP1 or BP3. Mice were treated every 3-4 days with 200 ug BP as described in Methods. Tumor volume was measured 2×/week. *P<0.05 at days 10, 14, 17 and 24 (change in tumor volume (ANOVA)). FIG. 5A—tumors treated with binding peptide 1. FIG. 5B—tumors treated with binding peptide 3.
Mice bearing MDA-MB-468 xenografts (average tumor volume: 0.19 cm^3) were treated with i.p. injections of individual peptides (200 μg/dose) (FIG. 5). After 4 weeks of twice-weekly treatment, tumor growth was inhibited by 49% and 58% in mice treated with BP1 (FIG. 5A) or BP3 (FIG. 5B), respectively. The effect of BP3 on tumor growth was apparent after 2 weeks of treatment (FIG. 5B), whereas the inhibitory effect of BP1 was evident after one week (FIG. 5A). The average changes in individual tumor volumes during treatment with BP1 were significant (P<0.05) at days 10, 14, 17 and 24 (FIG. 5A). Treatment with BP2 was ineffective; tumors continued to grow at almost the same rate as the mock-treated controls (results not shown). BP4 treatment produced a 20% inhibition of tumor growth (results not shown).

[3] = system: PlGF-mediated angiogenesis in corneal tissues; test: Mouse corneal micropocket angiogenesis assay; format: in vivo, C57B16/J mice; conditions: day 5; for effect on PlGF mediated angiogenesis in corneal tissues: micropellets, 100 ng PlGF with 1 μM peptide
Procedure: The ability of PlGF ligands to block PlGF-mediated angiogenesis in corneal tissues in vivo is investigated. Corneal micropockets are created using a modified von Graefe cataract knife in both eyes of male 5-6-wk-old C57B16/J mice. Micropellets comprised of a sustained release formulation of polyglucuronic acid/polylactic acid containing 100 ng of PlGF or PlGF with 1 μM BP-1, BP-2, BP-3 or BP-4 are implanted into each corneal pocket. Eyes are examined by a slit-lamp biomicroscope on day 5 after pellet implantation. Vessel length and neovascularization are measured.

[4] = system: MDA-MB-231 human breast cancer cells; test: MTT tumor cell viability assay, MDA-MB-231; format: cell-based; conditions: 24 h
Procedure: as §2, with “These assays were also performed using medium with 10% FBS, with similar results.” left out

[5] = system: MDA-MB-468 human breast cancer cells; test: MTT tumor cell viability assay, MDA-MB-468; format: cell-based; conditions: peptide 2 μM or PlGF 2 nM alone, 24 h
Procedure: as §2, with “These assays were also performed using medium with 10% FBS, with similar results.” left out

MDA-MB-231 [6] = test: Wound-healing (motility) assay, MDA-MB-231; format: cell-based, human
Procedure: (§3) MCF-7, MDA-MB-23 1, and MDA-MB-468 breast tumor cell lines or HECs were seeded onto sterile glass coverslips in Petri dishes or six-well plates. When the cells were 70-80% confluent, the monolayers were scratched with a sterile plastic pipet tip.
(§4) Inhibitor concentrations were 50 μM PD98059 (PD98) (mitogen activated protein kinase-kinase 1 [MEK1] inhibitor), 5 nM Wortmannin (phosphatidyl inositol 3 kinase [PI3K] inhibitor), or human recombinant soluble Flt-1 (sFlt-1) (R&D Systems). […] Cells were pre-incubated with PD98 and Wortmannin for 15-30 min before addition of PlGF. Stained (Wright-Giemsa) and mounted coverslips were examined microscopically. Five to ten 100× fields were evaluated by counting the number of cells separated from the wound edges and which appeared to be migrating toward the center of the wound. Results are reported as the average number of cells migrating into the wound/100× field. In some cases data from separate experiments were combined to accommodate inclusion of various treatments in the tables.
(§5) Antibody concentration was 1 μg/ml. MEK1 inhibitor, PD98059 (PD98), 50 μM. PI3K inhibitor, Wortmannin, 5 nM. […] Values for antibody and inhibitor treatments were from separate experiments which included all relevant controls. […] UT denotes untreated controls. *P<0.01 (ANOVA) compared to UT; † P<0.02 (ANOVA) compared to PlGF only. ‡ P<0.001 (ANOVA) compared to PlGF only.

MDA-MB-468 [7] = test: Wound-healing (motility) assay, MDA-MB-468; format: cell-based, human
Procedure: as §3, §4, §5

MCF-7 [8] = test: Wound-healing (motility) assay, MCF-7; format: cell-based, human
Procedure: as §3, §4, §5

MDA-MB-231 [9] = test: Matrigel cell invasion assay, MDA-MB-231; format: cell-based, human; conditions: 24 h
Procedure: (§6) Cellular invasion was determined by addition of 5×10^4cells to growth factor-reduced Matrigel invasion chambers (BD Biosciences Discovery Labware, Bedford, Mass.) (Taylor et al., 2003b; Passaniti et al., 1992, Lab Invest 67, 519-528). Additives to the Matrigel® plugs were pre-incubated together in a total volume of 100 μl PBS at RT for 10 min, after which each additive was added to the Matrigel. Growth factors (2.0 or 0.2 nM), peptide (2 μg/ml), or antibody (1 μg/ml) were added to cells in low serum (0.1% fetal bovine serum [FBS]) medium. Baseline and chemoattractant-based invasion (10% FBS) were included. The number of invading cells was determined by counting the number of cells on the bottom of the invasion chamber membrane after staining at 100× magnification after 24 h (MDA-MB-231) or 48 h (MCF-7, MDA-MB-468). The results of three to five separate experiments are presented.

MCF-7 [10] = test: Matrigel cell invasion assay, MCF-7; format: cell-based, human; conditions: PlGF 0.2 nM ± peptide 2 μg/ml; 48 h
Procedure: as §6

MDA-MB-468 [11] = test: Matrigel cell invasion assay, MDA-MB-468; format: cell-based, human; conditions: PlGF 0.2 nM ± peptide 2 μg/ml; 48 h
Procedure: as §6

[12] = system: microvessels in PlGF-containing Matrigel plugs; test: Matrigel basement membrane plug angiogenesis assay; format: in vivo, nude mice
Excerpt: To further investigate the effect of PlGF binding peptides on endothelial cell migration and angiogenesis, Matrigel basement membrane plugs containing PlGF, BP1, BP2, or PBS were implanted s.c. on the flanks of nude mice. The number of interior microvessels in the PBS controls was 16.2±11.4/mm^2. PlGF-only implants contained 28.9±17.2/mm^2 (1.8-fold vs. mock-treated implants), and implants with PlGF and BP1 contained only 12.3±13.0 microvessels/mm^2 (P<0.02).

[13] = PlGF 2 nM ± test agent, relative to PlGF-only value
[14] = growth factor PlGF 2 nM ± test agent (Flt-1 2 nM, peptide 2 μM, antibody 1 μg/ml), 18-24 h

**Q.** What does the source list for “RMPYSEHSAPLG (listed as Homo sapiens) [BP4]”?
**A.** binding to PlGF (in words) (PlGF): did not bind detectably; binding to Flt-1 (in words) [1]: No measurable binding; effect on viability of PlGF-containing MCF-7 cultures ([2]; PlGF 2 nM + peptide 1-2 μM, 24 h, 1% serum): significant reduction in cell viability; tumor growth inhibition (MDA-MB-468 xenografts): 20%; effect on PlGF mediated angiogenesis in corneal tissues [3]: inhibits

**Q.** Which results are given for “QEAFNRLTSRMH (listed as Homo sapiens) [BP3]”?
**A.** binding to PlGF (in words) (PlGF): did not bind detectably; binding to Flt-1 (in words) [1]: No measurable binding; effect on viability after 48 h, peptide alone ([2]; peptide alone, 48 h, vs untreated controls): lost viability; effect on viability of PlGF-containing MDA-MB-231 cultures ([4]; PlGF 2 nM + peptide 1-2 μM, 1% serum): significant reduction in cell viability; duration of treatment after which effect on tumor growth was apparent (MDA-MB-468 xenografts): 2 weeks; tumor growth inhibition (MDA-MB-468 xenografts): 58%; effect on PlGF mediated angiogenesis in corneal tissues [3]: inhibits

B1: PlGF: recombinant human PlGF-2, placental growth factor (R&D Systems) (protein)
chain: LPAVPPQQWALSAGNGSSEVEVVPFQEVWGRSYCRALERLVDVVSEYPSEVEHMFSPSCVSLLRCTGCCGDENLHCVPVETANVTMQLLKIRSGDRPSYVELTFSQHVRCECRPLREKMKPERRRPKGRGKRRREKQRPTDCHLCGDAVPRR
**Q.** With B1 as the molecule, how does the “effect on cell viability / cell number, agent alone” value ([4]; peptide 2 μM or PlGF 2 nM alone) read?
**A.** Its value is “increased cell numbers”.

**Q.** What about the “effect on cell viability / cell number, agent alone” value [5] of the same molecule?
**A.** The value was “increased cell numbers”.

**Q.** And the Relative activity (MDA-MB-231 [6]; [13])?
**A.** The Relative activity was 100.

**Q.** And the increase in motility (MDA-MB-231 [6]; exogenous PlGF)?
**A.** The increase in motility was 1.8-2.1 fold.

**Q.** What about the Migrating cells (MDA-MB-231 [6]; growth factor PlGF 2 nM ± test agent (Flt-1 2 nM, peptide 2 μM, antibody 1 μg/ml, PD98059 50 μM, Wortmannin 5 nM), 18-24 h) of the same molecule?
**A.** The Migrating cells was 42.0 ± 13.3* cells/100× field.

**Q.** What about the Relative activity (MDA-MB-468 [7]; [13]) of the same molecule?
**A.** The Relative activity was 100.

**Q.** And the “effect on motility (in words)” value (MDA-MB-468 [7]; exogenous PlGF)?
**A.** Its value is “did not significantly affect”.

**Q.** And the Migrating cells (MDA-MB-468 [7]; [14])?
**A.** Its Migrating cells is 14.7 ± 9.8 cells/100× field.

**Q.** And the Relative activity (MCF-7 [8]; [13])?
**A.** Its Relative activity is 100.

**Q.** And the increase in motility (MCF-7 [8]; exogenous PlGF)?
**A.** The increase in motility was 1.8-2.1 fold.

**Q.** And the Migrating cells (MCF-7 [8]; [14])?
**A.** Its Migrating cells is 22.1 ± 13.4* cells/100× field.

**Q.** What about the “Average fold-change in the number of cells on the membrane compared to untreated controls” value (shortened to “Average fold-change in the number”) (MDA-MB-231 [9]; PlGF 0.2 nM ± peptide 2 μg/ml) of the same molecule?
**A.** Its value is 4.0 ± 2.2 fold.

**Q.** And the invading cells (MDA-MB-231 [9]; PlGF 0.2 nM)?
**A.** The invading cells was 28±12 cells.

**Q.** And the invading cells (MDA-MB-231 [9]; PlGF 2.0 nM)?
**A.** Its invading cells is 30±13.7 cells.

**Q.** What about the increased invasion (MDA-MB-231 [9]; PlGF at both 2.0 and 0.2 nM) of the same molecule?
**A.** Its increased invasion is ~3 fold.

**Q.** What about the “Average fold-change in the number” value (MCF-7 [10]) of the same molecule?
**A.** Its value is 2.1 ± 0.7 fold.

**Q.** What about the “Average fold-change in the number” value (MDA-MB-468 [11]) of the same molecule?
**A.** The value was 1.8 ± 0.3 fold.

**Q.** What about the interior microvessels ([12]; PlGF-containing implants ± BP1, s.c., PBS controls 16.2±11.4) of the same molecule?
**A.** The interior microvessels was 28.9±17.2 /mm^2.

**Q.** And the “microvessels, fold vs. mock-treated implants” value ([12]; PlGF-only implants)?
**A.** Its value is 1.8 fold.

**Q.** And the “angiogenic response in cornea” value ([3]; micropellets with 100 ng PlGF)?
**A.** The value was “induces a strong angiogenic response”.
